This is an account of results in patent US8697366 (SEOUL NATIONAL UNIVERSITY INDUSTRY FOUNDATION, dated 2014).

Experiment [1] addresses T1, β-catenin (UniProt P35222 1-781).
T1 sequence (looked up): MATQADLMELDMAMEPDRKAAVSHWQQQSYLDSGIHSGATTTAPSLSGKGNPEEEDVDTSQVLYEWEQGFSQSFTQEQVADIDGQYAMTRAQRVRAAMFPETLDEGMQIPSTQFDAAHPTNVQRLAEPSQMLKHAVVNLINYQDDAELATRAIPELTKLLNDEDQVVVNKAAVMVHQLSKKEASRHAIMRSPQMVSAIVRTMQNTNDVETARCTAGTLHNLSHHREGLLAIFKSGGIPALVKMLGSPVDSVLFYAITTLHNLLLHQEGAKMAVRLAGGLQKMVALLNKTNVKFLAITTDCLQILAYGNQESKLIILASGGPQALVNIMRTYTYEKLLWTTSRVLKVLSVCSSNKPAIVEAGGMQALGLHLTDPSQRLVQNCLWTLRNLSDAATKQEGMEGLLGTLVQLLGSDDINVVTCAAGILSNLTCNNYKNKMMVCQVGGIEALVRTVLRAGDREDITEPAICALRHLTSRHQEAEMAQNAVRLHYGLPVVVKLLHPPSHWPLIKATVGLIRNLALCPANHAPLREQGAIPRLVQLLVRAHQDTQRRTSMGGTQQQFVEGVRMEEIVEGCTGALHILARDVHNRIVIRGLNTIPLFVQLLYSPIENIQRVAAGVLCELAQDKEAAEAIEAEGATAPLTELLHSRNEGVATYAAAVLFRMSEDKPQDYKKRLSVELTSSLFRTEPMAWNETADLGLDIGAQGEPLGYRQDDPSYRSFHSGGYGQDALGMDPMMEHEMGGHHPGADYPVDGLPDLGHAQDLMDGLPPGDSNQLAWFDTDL
The experiment is described as follows: anti-Flag M2 affinity purification from HEK293 extracts, LC-MS/MS and immunoblot of eluates. The protocol:
FIG. 1. Purification of RORα-containing complex and identification of β-catenin as a binding partner (A) RORα-containing complex was purified from extracts obtained from HEK293 cells stably expressing Flag-tagged RORα. As a negative control, a mock purification from HEK293 cells stably expressing an empty vector was performed. The bound proteins were resolved by SDS-PAGE and prepared for LC-MS/MS analysis. […] (C) β-catenin and GRIP1 were detected from the elutes by immunoblot analysis. (D) Coimmunoprecipitation of endogenous RORα with β-catenin in HEK293 cells. (E) Ni+-NTA-agarose pulldown assay was performed with plasmids expressing each GFP-tagged β-catenin deletion construct and HisMax-RORα. (F) Illustration of the structure of various β-catenin deletion constructs and binding to RORα.
Purification of RORα-Containing Complex and Identification of β-Catenin as a Binding Partner To investigate the as-yet-unidentified functional modules of RORα, we used a Flag epitope-tag strategy to purify RORα-containing complexes. We generated cell lines that stably express Flag-tagged RORα, and incubated the extracts in anti-Flag M2 affinity gel. After washing with buffer containing increasing salt concentrations of up to 500 mM, the proteins retained on the affinity chromatography column were eluted with buffer containing Flag peptide. […]
Background: In western blotting, separated proteins are transferred to a membrane and probed.

The target in the next experiment is PKCβ2 (UniProt P05771-2 1-673). The experiment is described as follows: in vivo coimmunoprecipitation.
Another experiment has as its target PKCη (UniProt P24723 1-683). The experiment is described as follows: in vivo coimmunoprecipitation.
The target in another experiment is T2, PKCε (UniProt Q02156 1-737).
T2 sequence (looked up): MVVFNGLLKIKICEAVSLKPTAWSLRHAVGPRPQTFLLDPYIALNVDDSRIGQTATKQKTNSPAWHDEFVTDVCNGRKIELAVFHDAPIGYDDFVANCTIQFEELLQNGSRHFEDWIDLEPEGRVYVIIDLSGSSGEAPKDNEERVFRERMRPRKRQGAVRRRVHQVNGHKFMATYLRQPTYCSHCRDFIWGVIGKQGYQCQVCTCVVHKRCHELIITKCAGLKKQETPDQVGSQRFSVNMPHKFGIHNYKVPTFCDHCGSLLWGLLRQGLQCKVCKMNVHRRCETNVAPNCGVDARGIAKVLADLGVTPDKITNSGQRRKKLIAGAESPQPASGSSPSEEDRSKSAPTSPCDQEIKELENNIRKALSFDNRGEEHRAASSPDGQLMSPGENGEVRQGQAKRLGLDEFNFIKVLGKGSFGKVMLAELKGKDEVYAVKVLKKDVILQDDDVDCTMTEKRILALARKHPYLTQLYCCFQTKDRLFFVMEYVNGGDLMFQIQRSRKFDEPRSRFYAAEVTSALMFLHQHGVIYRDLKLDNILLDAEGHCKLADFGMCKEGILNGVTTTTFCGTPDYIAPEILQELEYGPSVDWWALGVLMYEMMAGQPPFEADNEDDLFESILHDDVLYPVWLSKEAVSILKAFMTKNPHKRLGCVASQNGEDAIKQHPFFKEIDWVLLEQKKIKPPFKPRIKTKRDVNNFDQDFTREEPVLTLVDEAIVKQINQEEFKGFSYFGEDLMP
The experiment is described as follows: in vivo coimmunoprecipitation.

The target of the next experiment is PKCδ (UniProt Q05655 1-676). The experiment is described as follows: in vivo coimmunoprecipitation.
Experiment [2] addresses T1, β-catenin. The experiment is described as follows: co-IP with anti-Flag antibody from HCT116 cells, immunoblot for β-catenin. Here is the method: FIG. 4. PKCα-dependent phosphorylation of RORα is crucial for downregulation of Wnt/β-catenin target genes (A) The specificity of the antibody raised against phosphorylated RORαS35 peptide (SEQ ID NO:18) was assessed by dot blot analysis. (B) Treatment of TPA increased phophorylated RORα on S35 site as assessed by immunoprecipitation with anti-phospho-RORαS35 antibody. […] (D) Treatment of Go6976, a PKCα inhibitor, abolished TPA-dependent phosphorylation of RORα as assessed by immonoblotting with anti-phospho-RORαS35 antibody. (E) HCT116 cells were transfected with Flag-RORα WT, S35D, or S35A, and the cell extracts were immunoprecipitated with anti-Flag antibody followed by immunoblotting against anti-β-catenin antibody. (F) Coimmunoprecipitation assay of β-catenin with either RORαWT or S35A in HCT116 cells after treatment with TPA in the absence or presence of Go6976. (G) ChIP analysis on the cyclin D1 promoter after transfection with Flag-RORαWT, S35A, or S35D in HCT116 cells. (H) ChIP analysis on the cyclin D1 promoter in HCT116 cells after TPA treatment for indicated time. […] (J) Real-time quantitative RT-PCR analysis of the cyclin D1 transcript in HCT116 cells in the presence of TPA for indicated time. (K) Knockdown effect of siRNA against RORα or PKCα was assessed in the expression of the cyclin D1 transcript in HCT116 cells. […]

Sequence of PKCβ2 (P05771 other isoform, or with tags, fused parts or gaps): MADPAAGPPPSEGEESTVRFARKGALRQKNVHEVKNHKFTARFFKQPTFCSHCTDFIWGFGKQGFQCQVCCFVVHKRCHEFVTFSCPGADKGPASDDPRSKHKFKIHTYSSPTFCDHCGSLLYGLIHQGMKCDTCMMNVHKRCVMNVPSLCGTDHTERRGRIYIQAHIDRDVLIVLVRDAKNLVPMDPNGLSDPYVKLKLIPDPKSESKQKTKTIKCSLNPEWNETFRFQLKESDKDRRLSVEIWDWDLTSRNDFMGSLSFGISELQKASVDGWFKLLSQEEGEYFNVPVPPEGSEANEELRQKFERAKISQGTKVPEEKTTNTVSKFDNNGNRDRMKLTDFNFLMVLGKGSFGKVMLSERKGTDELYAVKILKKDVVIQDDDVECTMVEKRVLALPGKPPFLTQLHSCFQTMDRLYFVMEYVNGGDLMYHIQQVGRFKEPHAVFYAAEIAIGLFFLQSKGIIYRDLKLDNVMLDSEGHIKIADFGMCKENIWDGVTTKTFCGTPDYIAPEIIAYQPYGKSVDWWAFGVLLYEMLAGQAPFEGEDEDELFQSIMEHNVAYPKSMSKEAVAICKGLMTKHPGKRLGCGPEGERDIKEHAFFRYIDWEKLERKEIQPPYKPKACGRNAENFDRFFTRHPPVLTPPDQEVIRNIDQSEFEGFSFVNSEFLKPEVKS
Sequence of PKCη (P24723 whole entry): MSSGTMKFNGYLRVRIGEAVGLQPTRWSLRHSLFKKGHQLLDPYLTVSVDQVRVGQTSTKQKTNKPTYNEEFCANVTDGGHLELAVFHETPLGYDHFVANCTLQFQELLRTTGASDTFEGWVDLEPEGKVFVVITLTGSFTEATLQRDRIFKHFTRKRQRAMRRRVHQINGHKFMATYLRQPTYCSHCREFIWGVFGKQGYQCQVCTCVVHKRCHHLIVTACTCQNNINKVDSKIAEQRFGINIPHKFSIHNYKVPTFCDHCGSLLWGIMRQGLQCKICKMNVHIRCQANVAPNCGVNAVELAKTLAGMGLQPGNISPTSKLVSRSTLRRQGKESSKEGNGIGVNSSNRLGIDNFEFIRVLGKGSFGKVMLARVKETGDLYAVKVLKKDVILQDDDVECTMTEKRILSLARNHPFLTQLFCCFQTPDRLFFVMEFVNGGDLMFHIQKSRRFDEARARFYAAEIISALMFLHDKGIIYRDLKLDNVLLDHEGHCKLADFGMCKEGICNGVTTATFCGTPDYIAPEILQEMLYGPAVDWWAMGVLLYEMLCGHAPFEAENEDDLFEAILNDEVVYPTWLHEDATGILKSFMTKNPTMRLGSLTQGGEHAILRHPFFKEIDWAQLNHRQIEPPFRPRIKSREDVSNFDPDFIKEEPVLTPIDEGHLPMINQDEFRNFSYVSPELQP
Sequence of PKCδ (Q05655 whole entry, stated change not applied): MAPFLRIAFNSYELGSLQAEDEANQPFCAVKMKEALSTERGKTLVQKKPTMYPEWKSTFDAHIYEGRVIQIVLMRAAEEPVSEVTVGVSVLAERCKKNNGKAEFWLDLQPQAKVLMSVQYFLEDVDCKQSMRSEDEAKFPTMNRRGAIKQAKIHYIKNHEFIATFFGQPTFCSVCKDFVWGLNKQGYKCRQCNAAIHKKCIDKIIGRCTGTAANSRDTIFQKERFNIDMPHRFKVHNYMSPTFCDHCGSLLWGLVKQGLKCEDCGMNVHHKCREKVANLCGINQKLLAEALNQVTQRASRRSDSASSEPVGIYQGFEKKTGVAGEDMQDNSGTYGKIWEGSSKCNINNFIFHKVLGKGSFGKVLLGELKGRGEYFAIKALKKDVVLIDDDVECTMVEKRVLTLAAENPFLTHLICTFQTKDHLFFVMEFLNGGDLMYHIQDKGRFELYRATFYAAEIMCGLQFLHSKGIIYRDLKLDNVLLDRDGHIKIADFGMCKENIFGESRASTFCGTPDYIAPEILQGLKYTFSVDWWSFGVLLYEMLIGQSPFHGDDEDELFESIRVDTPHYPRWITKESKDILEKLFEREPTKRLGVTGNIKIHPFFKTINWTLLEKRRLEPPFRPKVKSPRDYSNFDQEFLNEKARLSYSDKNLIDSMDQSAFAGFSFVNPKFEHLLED

B1: Flag-tagged RORα (receptor, UniProt P35398 1-523, looked up)
chain: MESAPAAPDPAASEPGSSGADAAAGSRETPLNQESARKSEPPAPVRRQSYSSTSRGISVTKKTHTSQIEIIPCKICGDKSSGIHYGVITCEGCKGFFRRSQQSNATYSCPRQKNCLIDRTSRNRCQHCRLQKCLAVGMSRDAVKFGRMSKKQRDSLYAEVQKHRMQQQQRDHQQQPGEAEPLTPTYNISANGLTELHDDLSNYIDGHTPEGSKADSAVSSFYLDIQPSPDQSGLDINGIKPEPICDYTPASGFFPYCSFTNGETSPTVSMAELEHLAQNISKSHLETCQYLREELQQITWQTFLQEEIENYQNKQREVMWQLCAIKITEAIQYVVEFAKRIDGFMELCQNDQIVLLKAGSLEVVFIRMCRAFDSQNNTVYFDGKYASPDVFKSLGCEDFISFVFEFGKSLCSMHLTEDEIALFSAFVLMSADRSWLQEKVKIEKLQQKIQLALQHVLQKNHREDGILTKLICKVSTLRALCGRHTEKLMAFKAIYPDIVRLHFPPLYKELFTSEFEPAMQIDG
notes: also called Flag-RORα; Flag-RORα WT; not shown: Flag tag
For B1, the binding result with β-catenin [1] is “binds”.

B2: RORα (receptor, UniProt P35398 1-523, looked up)
chain: MESAPAAPDPAASEPGSSGADAAAGSRETPLNQESARKSEPPAPVRRQSYSSTSRGISVTKKTHTSQIEIIPCKICGDKSSGIHYGVITCEGCKGFFRRSQQSNATYSCPRQKNCLIDRTSRNRCQHCRLQKCLAVGMSRDAVKFGRMSKKQRDSLYAEVQKHRMQQQQRDHQQQPGEAEPLTPTYNISANGLTELHDDLSNYIDGHTPEGSKADSAVSSFYLDIQPSPDQSGLDINGIKPEPICDYTPASGFFPYCSFTNGETSPTVSMAELEHLAQNISKSHLETCQYLREELQQITWQTFLQEEIENYQNKQREVMWQLCAIKITEAIQYVVEFAKRIDGFMELCQNDQIVLLKAGSLEVVFIRMCRAFDSQNNTVYFDGKYASPDVFKSLGCEDFISFVFEFGKSLCSMHLTEDEIALFSAFVLMSADRSWLQEKVKIEKLQQKIQLALQHVLQKNHREDGILTKLICKVSTLRALCGRHTEKLMAFKAIYPDIVRLHFPPLYKELFTSEFEPAMQIDG
notes: also called retinoic acid-related orphan nuclear receptor (ROR)α; endogenous RORα
As for B2, the binding result in the experiment with PKCβ2, with PKCη, with PKCε and in the experiment with PKCδ was “no binding” each time.

B3: Flag-RORα S35D (receptor, UniProt P35398 1-523, looked up)
chain: MESAPAAPDPAASEPGSSGADAAAGSRETPLNQEDARKSEPPAPVRRQSYSSTSRGISVTKKTHTSQIEIIPCKICGDKSSGIHYGVITCEGCKGFFRRSQQSNATYSCPRQKNCLIDRTSRNRCQHCRLQKCLAVGMSRDAVKFGRMSKKQRDSLYAEVQKHRMQQQQRDHQQQPGEAEPLTPTYNISANGLTELHDDLSNYIDGHTPEGSKADSAVSSFYLDIQPSPDQSGLDINGIKPEPICDYTPASGFFPYCSFTNGETSPTVSMAELEHLAQNISKSHLETCQYLREELQQITWQTFLQEEIENYQNKQREVMWQLCAIKITEAIQYVVEFAKRIDGFMELCQNDQIVLLKAGSLEVVFIRMCRAFDSQNNTVYFDGKYASPDVFKSLGCEDFISFVFEFGKSLCSMHLTEDEIALFSAFVLMSADRSWLQEKVKIEKLQQKIQLALQHVLQKNHREDGILTKLICKVSTLRALCGRHTEKLMAFKAIYPDIVRLHFPPLYKELFTSEFEPAMQIDG
notes: not shown: Flag tag
As to B3, the binding result with β-catenin [2] is “binds”.

B4: Flag-RORα DBD mutant (C90A) (receptor, UniProt P35398 1-523, looked up)
chain: MESAPAAPDPAASEPGSSGADAAAGSRETPLNQESARKSEPPAPVRRQSYSSTSRGISVTKKTHTSQIEIIPCKICGDKSSGIHYGVITAEGCKGFFRRSQQSNATYSCPRQKNCLIDRTSRNRCQHCRLQKCLAVGMSRDAVKFGRMSKKQRDSLYAEVQKHRMQQQQRDHQQQPGEAEPLTPTYNISANGLTELHDDLSNYIDGHTPEGSKADSAVSSFYLDIQPSPDQSGLDINGIKPEPICDYTPASGFFPYCSFTNGETSPTVSMAELEHLAQNISKSHLETCQYLREELQQITWQTFLQEEIENYQNKQREVMWQLCAIKITEAIQYVVEFAKRIDGFMELCQNDQIVLLKAGSLEVVFIRMCRAFDSQNNTVYFDGKYASPDVFKSLGCEDFISFVFEFGKSLCSMHLTEDEIALFSAFVLMSADRSWLQEKVKIEKLQQKIQLALQHVLQKNHREDGILTKLICKVSTLRALCGRHTEKLMAFKAIYPDIVRLHFPPLYKELFTSEFEPAMQIDG
notes: also called RORαC90A; not shown: Flag tag
On to B4, for which the binding result in the experiment with β-catenin [2] is “binds”.
